{
  "source": "paper PMC3276249",
  "about": "(Molecular Microbiology, 2012)",
  "key": {"[1]": {"target": "the molecule itself", "assay": "cross-linking"}, "[2]": {"target": "the molecule itself", "assay": "SEC"}},
  "data": [
    {"protein": "Bcam0581 of Burkholderia cenocepacia J2315, hexahistidine-tagged (enzyme) MQLQSHPACRPFYEAGELSQLTAFYEEGRNVMWMMLRSEPRPCFNQQLVTDIIHLARVARDSGLTFDFWVTGSLVPELFNVGGDLSFFVDAIRSGRRDQLMAYARSCIDGVYEIYTGFGTGAISIAMVEGSALGGGFEAALAHHYVLAQKGVKLGFPEIAFNLFPGMGGYSLVARKANRGLAESLIATGEAHAAEWYEDCGLIDETFDAGDAYLATRTFIDVTKPKLNGIRAMLRARERVFQLSRSELMDITEAWVHAAFTIEPKDLAYMERLVMLQNRRVSKLRTV", "values": [
      {"measurement": "stoichiometry N", "setting": "[1]", "result": "~3"},
      {"measurement": "stoichiometry N", "setting": "[2]", "result": 3}
    ]}
  ]
}
